According to patent US10233474B2, “Materials and methods for producing 6-carbon monomers” (INVISTA North America S.á.r.l., priority 2014, dated 2019):

B1: SEQ ID NO 9: Pseudomonas syringae ω-transaminase, N-terminal His-tagged (protein, listed as Pseudomonas syringae)
chain: MSANNPQTLEWQALSSEHHLAPFSDYKQLKEKGPRIITRAEGVYLWDSEGNKILDGMSGLWCVAIGYGREELADAASKQMRELPYYNLFFQTAHPPVLELAKAISDIAPEGMNHVFFTGSGSEGNDTMLRMVRHYWALKGQPNKKTIISRVNGYHGSTVAGASLGGMTYMHEQGDLPIPGVVHIPQPYWFGEGGDMTPDEFGIWAAEQLEKKILELGVENVGAFIAEPIQGAGGVIVPPDSYWPKIKEILSRYDILFAADEVICGFGRTSEWFGSDFYGLRPDMMTIAKGLTSGYVPMGGLIVRDEIVAVLNEGGDFNHGFTYSGHPVAAAVALENIRILREEKIVERVRSETAPYLQKRLRELSDHPLVGEVRGVGLLGAIELVKDKTTRERYTDKGAGMICRTFCFDNGLIMRAVGDTMIIAPPLVISFAQIDELVEKARTCLDLTLAVLQG
modifications: N-terminal His tag
notes: Pseudomonas syringae ω-transaminase, N-terminal His-tagged
B2: SEQ ID NO 12: Vibrio fluvialis ω-transaminase, N-terminal His-tagged (protein, listed as Vibrio fluvialis)
chain: MNKPQSWEARAETYSLYGFTDMPSLHQRGTVVVTHGEGPYIVDVNGRRYLDANSGLWNMVAGFDHKGLIDAAKAQYERFPGYHAFFGRMSDQTVMLSEKLVEVSPFDSGRVFYTNSGSEANDTMVKMLWFLHAAEGKPQKRKILTRWNAYHGVTAVSASMTGKPYNSVFGLPLPGFVHLTCPHYWRYGEEGETEEQFVARLARELEETIQREGADTIAGFFAEPVMGAGGVIPPAKGYFQAILPILRKYDIPVISDEVICGFGRTGNTWGCVTYDFTPDAIISSKNLTAGFFPMGAVILGPELSKRLETAIEAIEEFPHGFTASGHPVGCAIALKAIDVVMNEGLAENVRRLAPRFEERLKHIAERPNIGEYRGIGFMWALEAVKDKASKTPFDGNLSVSERIANTCTDLGLICRPLGQSVVLCPPFILTEAQMDEMFDKLEKALDKVFAEVA
modifications: N-terminal His tag
notes: Vibrio fluvialis ω-transaminase, N-terminal His-tagged
B3: SEQ ID NO 8: Pseudomonas aeruginosa ω-transaminase, N-terminal His-tagged (protein, listed as Pseudomonas aeruginosa)
chain: MNARLHATSPLGDADLVRADQAHYMHGYHVFDDHRVNGSLNIAAGDGAYIYDTAGNRYLDAVGGMWCTNIGLGREEMARTVAEQTRLLAYSNPFCDMANPRAIELCRKLAELAPGDLDHVFLTTGGSTAVDTAIRLMHYYQNCRGKRAKKHVITRINAYHGSTFLGMSLGGKSADRPAEFDFLDERIHHLACPYYYRAPEGLGEAEFLDGLVDEFERKILELGADRVGAFISEPVFGSGGVIVPPAGYHRRMWELCQRYDVLYISDEVVTSFGRLGHFFASQAVFGVQPDIILTAKGLTSGYQPLGACIFSRRIWEVIAEPDKGRCFSHGFTYSGHPVACAAALKNIEIIEREGLLAHADEVGRYFEERLQSLRDLPIVGDVRGMRFMACVEFVADKASKALFPESLNIGEWVHLRAQKRGLLVRPIVHLNVMSPPLILTREQVDTVVRVLRESIEETVEDLVRAGHR
modifications: N-terminal His tag
notes: Pseudomonas aeruginosa ω-transaminase, N-terminal His-tagged
B4: SEQ ID NO 7: Chromobacterium violaceum ω-transaminase, N-terminal His-tagged (protein, listed as Chromobacterium violaceum)
chain: MQKQRTTSQWRELDAAHHLHPFTDTASLNQAGARVMTRGEGVYLWDSEGNKIIDGMAGLWCVNVGYGRKDFAEAARRQMEELPFYNTFFKTTHPAVVELSSLLAEVTPAGFDRVFYTNSGSESVDTMIRMVRRYWDVQGKPEKKTLIGRWNGYHGSTIGGASLGGMKYMHEQGDLPIPGMAHIEQPWWYKHGKDMTPDEFGVVAARWLEEKILEIGADKVAAFVGEPIQGAGGVIVPPATYWPEIERICRKYDVLLVADEVICGFGRTGEWFGHQHFGFQPDLFTAAKGLSSGYLPIGAVFVGKRVAEGLIAGGDFNHGFTYSGHPVCAAVAHANVAALRDEGIVQRVKDDIGPYMQKRWRETFSRFEHVDDVRGVGMVQAFTLVKNKAKRELFPDFGEIGTLCRDIFFRNNLIMRACGDHIVSAPPLVMTRAEVDEMLAVAERCLEEFEQTLKARGLA
modifications: N-terminal His tag
notes: Chromobacterium violaceum ω-transaminase, N-terminal His-tagged
B5: SEQ ID NO: 6: Segniliparus rotundus carboxylate reductase, N-terminal His-tagged (protein, listed as Segniliparus rotundus)
chain: MTQSHTQGPQASAAHSRLARRAAELLATDPQAAATLPDPEVVRQATRPGLRLAERVDAILSGYADRPALGQRSFQTVKDPITGRSSVELLPTFDTITYRELRERATAIASDLAHHPQAPAKPGDFLASIGFISVDYVAIDIAGVFAGLTAVPLQTGATLATLTAITAETAPTLFAASIEHLPTAVDAVLATPSVRRLLVFDYRAGSDEDREAVEAAKRKIADAGSSVLVDVLDEVIARGKSAPKAPLPPATDAGDDSLSLLIYTSGSTGTPKGAMYPERNVAHFWGGVWAAAFDEDAAPPVPAINITFLPLSHVASRLSLMPTLARGGLMHFVAKSDLSTLFEDLKLARPTNLFLVPRVVEMLYQHYQSELDRRGVQDGTREAEAVKDDLRTGLLGGRILTAGFGSAPLSAELAGFIESLLQIHLVDGYGSTEAGPVWRDGYLVKPPVTDYKLIDVPELGYFSTDSPHPRGELAIKTQTILPGYYKRPETTAEVFDEDGFYLTGDVVAQIGPEQFAYVDRRKNVLKLSQGEFVTLAKLEAAYSSSPLVRQLFVYGSSERSYLLAVIVPTPDALKKFGVGEAAKAALGESLQKIARDEGLQSYEVPRDFIIETDPFTVENGLLSDARKSLRPKLKEHYGERLEAMYKELADGQANELRDIRRGVQQRPTLETVRRAAAAMLGASAAEIKPDAHFTDLGGDSLSALTFSNFLHDLFEVDVPVGVIVSAANTLGSVAEHIDAQLAGGRARPTFATVHGKGSTTIKASDLTLDKFIDEQTLEAAKHLPKPADPPRTVLLTGANGWLGRFLALEWLERLAPAGGKLITIVRGKDAAQAKARLDAAYESGDPKLAGHYQDLAATTLEVLAGDFSEPRLGLDEATWNRLADEVDFISHPGALVNHVLPYNQLFGPNVAGVAEIIKLAITTRIKPVTYLSTVAVAAGVEPSALDEDGDIRTVSAERSVDEGYANGYGNSKWGGEVLLREAHDRTGLPVRVFRSDMILAHQKYTGQVNATDQFTRLVQSLLATGLAPKSFYELDAQGNRQRAHYDGIPVDFTAESITTLGGDGLEGYRSYNVFNPHRDGVGLDEFVDWLIEAGHPITRIDDYDQWLSRFETSLRGLPESKRQASVLPLLHAFARPGPAVDGSPFRNTVFRTDVQKAKIGAEHDIPHLGKALVLKYADDIKQLGLL
modifications: N-terminal His tag
notes: Segniliparus rotundus carboxylate reductase, N-terminal His-tagged

How the values were obtained:
Format in all cases: biochemical
[1] = ω-transaminase activity, reverse direction (6-aminohexanoate to adipate semialdehyde); conditions: cell free extract; 10 mM 6-aminohexanoate, 10 mM pyruvate, pH 7.5, 25° C., 24 h; RP-HPLC
Procedure: (§1) A nucleotide sequence encoding a His-tag was added to the nucleic acid sequences from Chromobacterium violaceum, Pseudomonas aeruginosa, Pseudomonas syringae, Rhodobacter sphaeroides, and Vibrio fluvialis encoding the ω-transaminases of SEQ ID NOs: 7, 8, 9, 10 and 12, respectively (see FIG. 6) such that N-terminal HIS tagged ω-transaminases could be produced. Each of the resulting modified genes was cloned into a pET21a expression vector under control of the T7 promoter and each expression vector was transformed into a BL21[DE3] E. coli host. The resulting recombinant E. coli strains were cultivated at 37° C. in a 250 mL shake flask culture containing 50 mL LB media and antibiotic selection pressure, with shaking at 230 rpm. Each culture was induced overnight at 16° C. using 1 mM IPTG.
(§2) The pellet from each induced shake flask culture was harvested via centrifugation. Each pellet was resuspended and lysed via sonication. The cell debris was separated from the supernatant via centrifugation and the cell free extract was used immediately in enzyme activity assays.
Enzyme activity assays in the reverse direction (i.e., 6-aminohexanoate to adipate semialdehyde) were performed in a buffer composed of a final concentration of 50 mM HEPES buffer (pH=7.5), 10 mM 6-aminohexanoate, 10 mM pyruvate and […] pyridoxyl 5′ phosphate. Each enzyme activity assay reaction was initiated by adding cell free extract of the ω-transaminase gene product or the empty vector control to the assay buffer containing the 6-aminohexanoate and incubated at 25° C. for 24 h, with shaking at 250 rpm. The formation of L-alanine from pyruvate was quantified via RP-HPLC.

[2] = ω-transaminase activity, forward direction (adipate semialdehyde to 6-aminohexanoate); conditions: cell free extract; 10 mM adipate semialdehyde, 10 mM L-alanine, pH 7.5, 25° C., 4 h; RP-HPLC
Procedure: as §1, §2
Enzyme activity in the forward direction (i.e., adipate semialdehyde to 6-aminohexanoate) was confirmed for the transaminases of SEQ ID NO 7, SEQ ID NO 8, SEQ ID NO 9, SEQ ID NO 10 and SEQ ID NO 12. Enzyme activity assays were performed in a buffer composed of a final concentration of 50 mM HEPES buffer (pH=7.5), 10 mM adipate semialdehyde, 10 mM L-alanine and 100 μM pyridoxyl 5′ phosphate. Each enzyme activity assay reaction was initiated by adding a cell free extract of the ω-transaminase gene product or the empty vector control to the assay buffer containing the adipate semialdehyde and incubated at 25° C. for 4 h, with shaking at 250 rpm. The formation of pyruvate was quantified via RP-HPLC.

[3] = carboxylate reductase activity (adipate semialdehyde to hexanedial); conditions: purified enzyme with sfp phosphopantetheine transferase; 2 mM adipate semialdehyde, pH 7.5, room temperature, 20 min
Procedure: The N-terminal His-tagged carboxylate reductase of SEQ ID NO 6 (see Example 2 and FIG. 6) was assayed using adipate semialdehyde as substrate. The enzyme activity assay was performed in triplicate in a buffer composed of a final concentration of 50 mM HEPES buffer (pH=7.5), 2 mM adipate semialdehyde, 10 mM MgCl2, 1 mM ATP and 1 mM NADPH. The enzyme activity assay reaction was initiated by adding purified carboxylate reductase and phosphopantetheine transferase or the empty vector control to the assay buffer containing the adipate semialdehyde and then incubated at room temperature for 20 min. The consumption of NADPH was monitored by absorbance at 340 nm.

Molecule | ω-transaminase activity: conversion of pyruvate to L-alanine with 6-aminohexanoate as substrate, against the empty vector control [1] | ω-transaminase activity: conversion of L-alanine to pyruvate with adipate semialdehyde as substrate, against the empty vector control [2] | carboxylate reductase activity: consumption of NADPH (absorbance at 340 nm) with adipate semialdehyde as substrate, against the empty vector control [3]
SEQ ID NO 10: Rhodobacter sphaeroides ω-transaminase, N-terminal His-tagged | accepted 6-aminohexanote as substrate | accepted adipate semialdehyde as substrate | –
B1 | accepted 6-aminohexanote as substrate | accepted adipate semialdehyde as substrate | –
B2 | accepted 6-aminohexanote as substrate | accepted adipate semialdehyde as substrate | –
B3 | – | accepted adipate semialdehyde as substrate | –
B4 | accepted 6-aminohexanote as substrate | accepted adipate semialdehyde as substrate | –
B5 | – | – | accepted adipate semialdehyde as substrate
